One assay has as its target HLA-A*03:19. In words: IEDB peptide-MHC binding, purified MHC/competitive/fluorescence; filed as Kd, often an IC50 or EC50 that approximates it; ≥ and ≤ were set here for values at or beyond the usual limits of such assays. The conditions noted are these: source organism: Entamoeba histolytica HM-1:IMSS.
The next assay addresses HLA-B*15:42. The description is as above. The conditions noted are these: source organism: Entamoeba histolytica HM-1:IMSS.
In another assay the target is HLA-B*83:01. Described as above. The conditions noted are these: source organism: Entamoeba histolytica HM-1:IMSS.
The next assay has as its target HLA-A*02:50. Described as above. The conditions noted are these: source organism: Entamoeba histolytica HM-1:IMSS.
The target in a further assay is HLA-B*45:06. The assay is described as above. The conditions noted are these: source organism: Entamoeba histolytica HM-1:IMSS.
The target of a further assay is HLA-C*06:02. Described as above. The conditions noted are these: source organism: Entamoeba histolytica HM-1:IMSS.
Assay [1] concerns the target HLA-A*02:19. In words: IEDB peptide-MHC binding, purified MHC/direct/fluorescence; filed as Kd, often an IC50 or EC50 that approximates it; ≥ and ≤ were set here for values at or beyond the usual limits of such assays. Conditions: source organism: Entamoeba histolytica HM-1:IMSS.
The target in another assay is HLA-A*24:02. Described as above. The conditions noted are these: source organism: Entamoeba histolytica.
Assay [2] addresses HLA-B*18:01. The description is as above. Conditions: source organism: Entamoeba histolytica.
Another assay has as its target HLA-B*07:02. The description is as above. The conditions noted are these: source organism: Entamoeba histolytica.
The target of another assay is HLA-B*58:01. The description is as above. The conditions noted are these: source organism: Entamoeba histolytica.
For assay [3], the target named is HLA-A*69:01. The assay is described as above. Conditions: source organism: Entamoeba histolytica.
A further assay has as its target HLA-A*02:06. The description is as above. Conditions: source organism: Entamoeba histolytica HM-1:IMSS.
The target in the next assay is HLA-C*15:02. The assay is described as above. The conditions noted are these: source organism: Entamoeba histolytica HM-1:IMSS.
The target of assay [4] is HLA-A*03:01. Described as above. Conditions: source organism: Entamoeba histolytica.
In assay [5] the target is HLA-A*02:03. The assay is described as above. The conditions noted are these: source organism: Entamoeba histolytica HM-1:IMSS.
Another assay concerns the target HLA-B*40:01. The assay is described as above. Conditions: source organism: Entamoeba histolytica.
The target in assay [6] is HLA-A*02:01. Described as above. The conditions noted are these: source organism: Entamoeba histolytica.
A further assay deals with HLA-B*27:05. Described as above. Conditions: source organism: Entamoeba histolytica.
The target in a further assay is HLA-C*08:02. The assay is described as above. Conditions: source organism: Entamoeba histolytica HM-1:IMSS.
The target in assay [7] is HLA-B*15:01. The assay is described as above. The conditions noted are these: source organism: Entamoeba histolytica.
The target of assay [8] is HLA-A*02:12. The description is as above. The conditions noted are these: source organism: Entamoeba histolytica HM-1:IMSS.
The target in a further assay is HLA-A*01:01. The description is as above. Conditions: source organism: Entamoeba histolytica.
Another assay has as its target HLA-B*44:02. Described as above. The conditions noted are these: source organism: Entamoeba histolytica.
In assay [9] the target is HLA-A*02:11. Described as above. Conditions: source organism: Entamoeba histolytica HM-1:IMSS.
Assay [10] concerns the target HLA-A*02:19. The experiment in a line: IEDB peptide-MHC binding, purified MHC/competitive/fluorescence; filed as Kd, often an IC50 or EC50 that approximates it; ≥ and ≤ were set here for values at or beyond the usual limits of such assays. Conditions: source organism: Vibrio antiquarius.
The target in the next assay is HLA-B*46:01. The description is as above. The conditions noted are these: source organism: Vibrio antiquarius.
Assay [11] deals with HLA-B*18:01. The assay is described as above. Conditions: source organism: Vibrio antiquarius.
A further assay has as its target HLA-B*57:01. Described as above. Conditions: source organism: Vibrio antiquarius.
Assay [12] deals with HLA-A*69:01. Described as above. Conditions: source organism: Vibrio antiquarius.
The target in a further assay is HLA-B*39:01. The description is as above. The conditions noted are these: source organism: Vibrio antiquarius.
In assay [13] the target is HLA-A*03:01. The assay is described as above. Conditions: source organism: Vibrio antiquarius.
The target in the next assay is HLA-B*15:17. The assay is described as above. The conditions noted are these: source organism: Vibrio antiquarius.
A further assay deals with HLA-A*24:03. The description is as above. Conditions: source organism: Vibrio antiquarius.
The target of the next assay is HLA-A*23:01. Described as above. Conditions: source organism: Vibrio antiquarius.
In assay [14] the target is HLA-A*02:03. Described as above. The conditions noted are these: source organism: Vibrio antiquarius.
Assay [15] has as its target HLA-A*02:01. The description is as above. The conditions noted are these: source organism: Vibrio antiquarius.
In another assay the target is HLA-A*26:01. The assay is described as above. The conditions noted are these: source organism: Vibrio antiquarius.
Another assay deals with HLA-A*29:02. The description is as above. Conditions: source organism: Vibrio antiquarius.
In another assay the target is HLA-A*68:02. Described as above. Conditions: source organism: Vibrio antiquarius.
The target of assay [16] is HLA-B*15:01. The assay is described as above. The conditions noted are these: source organism: Vibrio antiquarius.
A further assay has as its target HLA-A*25:01. Described as above. The conditions noted are these: source organism: Vibrio antiquarius.
The target in assay [17] is HLA-A*02:12. Described as above. Conditions: source organism: Vibrio antiquarius.
In a further assay the target is HLA-B*51:01. The assay is described as above. Conditions: source organism: Vibrio antiquarius.
The target in another assay is HLA-A*80:01. The description is as above. Conditions: source organism: Vibrio antiquarius.
Another assay deals with HLA-B*27:03. Described as above. The conditions noted are these: source organism: Vibrio antiquarius.
Assay [18] concerns the target HLA-A*02:11. Described as above. Conditions: source organism: Vibrio antiquarius.

For the sequence KLMPGSIYV, the Kd (commonly the concentration at which binding is half-saturated) was 0.109 µM in the assay with HLA-A*03:19; not below 5 µM with HLA-B*15:42; not below 5 µM with HLA-B*83:01; not above 0.0001 µM in the assay with HLA-A*02:50; not below 5 µM with HLA-B*45:06; 1.17 µM in the assay with HLA-C*06:02. In addition, the equilibrium dissociation constant (Kd) in the assay with HLA-A*02:19 [1] was not above 0.001 µM; in the assay with HLA-A*24:02 it was not below 20 µM; in the assay with HLA-B*18:01 [2] it was not below 20 µM; with HLA-B*07:02 it was not below 20 µM; with HLA-B*58:01 it was not below 20 µM; with HLA-A*69:01 [3], 0.368 µM. Moreover, the Kd is 0.002 µM with HLA-A*02:06; 0.071 µM in the assay with HLA-C*15:02; 0.138 µM with HLA-A*03:01 [4]; not above 0.001 µM with HLA-A*02:03 [5]; not below 20 µM with HLA-B*40:01; 0.0062 µM with HLA-A*02:01 [6]. The Kd was not below 20 µM with HLA-B*27:05; not below 20 µM with HLA-C*08:02; 0.127 µM with HLA-B*15:01 [7]; 0.002 µM with HLA-A*02:12 [8]; not below 20 µM in the assay with HLA-A*01:01; not below 20 µM in the assay with HLA-B*44:02. For the same sequence, the Kd in the assay with HLA-A*02:11 [9] is not above 0.001 µM.
For the sequence SLTIPSFYT, the Kd with HLA-A*02:19 [10], with HLA-B*46:01, in the assay with HLA-B*18:01 [11], with HLA-B*57:01, with HLA-A*69:01 [12] and with HLA-B*39:01 was not below 20 µM each time. Besides, the Kd with HLA-A*03:01 [13], with HLA-B*15:17, with HLA-A*24:03, with HLA-A*23:01, with HLA-A*02:03 [14] and in the assay with HLA-A*02:01 [15] was not below 20 µM each time. Moreover, the Kd in the assay with HLA-A*26:01, in the assay with HLA-A*29:02, with HLA-A*68:02, in the assay with HLA-B*15:01 [16], with HLA-A*25:01 and with HLA-A*02:12 [17] was not below 20 µM in each case. Also, the Kd with HLA-B*51:01 was not below 20 µM; with HLA-A*80:01, not below 20 µM; with HLA-B*27:03 it was not below 20 µM; in the assay with HLA-A*02:11 [18], 0.0097 µM.
